Data published in publication PMC3286859.

Key:
[1] = test system: Cc1cc(=O)oc2cc(NC(=O)[C@H](CCCNC(=N)N)NC(=O)[C@H](Cc3ccccc3)NC(=O)OCc3ccccc3)ccc12; assay: purified protein; conditions: 100 mM sodium acetate pH 5.0, 1 mM EDTA, 2 mM DTT, no crammer added
[2] = molecular target: Drosophila cathepsin L purified from fly head extracts (Drosophila melanogaster (endogenous in fly heads)); assay: enzyme inhibition assay
[3] = molecular target: recombinant Drosophila cathepsin B (Drosophila); assay: enzyme inhibition assay

Drosophila cathepsin L (Drosophila melanogaster)
Km [1]: 3.85 µM

Drosophila melanogaster crammer, recombinant wild type (monomer) (natural protein)
Ki [2]: 1.36 nM | Ki [3]: 790 nM

crammer C72S (natural protein)
Ki [3]: 1870 nM

crammer F16A (natural protein)
Ki [3]: 2260 nM

crammer Y12A (natural protein)
Ki [3]: 18900 nM

crammer Y20A (natural protein)
Ki [3]: 5400 nM
